T1: 1:1 binary complex of the ectodomains of FGFR1c and Klotho (human; murine, UniProt O35082 35-982)
T1 construct: range 35-982; also called FGFR1c-Klotho complex; binary FGFR1c-Klotho complex; not shown: C-terminal FLAG tag
T1 sequence 1: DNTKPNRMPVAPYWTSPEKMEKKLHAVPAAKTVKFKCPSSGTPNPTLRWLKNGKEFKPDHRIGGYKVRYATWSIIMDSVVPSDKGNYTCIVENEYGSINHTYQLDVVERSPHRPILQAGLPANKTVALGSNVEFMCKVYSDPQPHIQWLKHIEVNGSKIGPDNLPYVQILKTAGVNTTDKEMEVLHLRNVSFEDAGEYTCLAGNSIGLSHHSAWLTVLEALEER
T1 sequence 2: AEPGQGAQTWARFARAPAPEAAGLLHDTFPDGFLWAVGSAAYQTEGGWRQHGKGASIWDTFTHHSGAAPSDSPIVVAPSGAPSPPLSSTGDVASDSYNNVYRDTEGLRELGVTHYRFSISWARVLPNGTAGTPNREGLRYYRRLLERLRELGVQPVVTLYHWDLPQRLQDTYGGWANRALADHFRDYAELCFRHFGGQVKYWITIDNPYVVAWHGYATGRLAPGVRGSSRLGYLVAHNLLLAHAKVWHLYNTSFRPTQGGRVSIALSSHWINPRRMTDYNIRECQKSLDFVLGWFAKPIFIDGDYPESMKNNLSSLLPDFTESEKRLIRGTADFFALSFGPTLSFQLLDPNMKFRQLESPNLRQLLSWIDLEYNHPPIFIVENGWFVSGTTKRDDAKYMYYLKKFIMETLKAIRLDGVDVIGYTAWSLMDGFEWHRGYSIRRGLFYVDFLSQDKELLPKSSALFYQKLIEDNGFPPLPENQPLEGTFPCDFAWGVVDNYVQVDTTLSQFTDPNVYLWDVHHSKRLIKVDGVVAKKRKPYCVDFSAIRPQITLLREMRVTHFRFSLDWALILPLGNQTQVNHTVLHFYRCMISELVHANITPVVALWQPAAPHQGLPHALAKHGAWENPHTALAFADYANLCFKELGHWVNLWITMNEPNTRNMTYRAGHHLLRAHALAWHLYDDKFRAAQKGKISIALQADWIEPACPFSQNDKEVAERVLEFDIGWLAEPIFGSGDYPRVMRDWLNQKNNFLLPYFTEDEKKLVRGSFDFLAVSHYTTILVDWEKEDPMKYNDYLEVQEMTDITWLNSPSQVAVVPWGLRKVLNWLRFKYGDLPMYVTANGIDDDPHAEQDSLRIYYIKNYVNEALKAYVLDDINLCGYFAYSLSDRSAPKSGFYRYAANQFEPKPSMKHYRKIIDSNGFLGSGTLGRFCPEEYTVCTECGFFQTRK

B1: FGF23 C-terminal region peptide (S180 to S205), FGF23^180-205 (peptide)
peptide: SAEDDSERDPLNVLKPRARMTPAPAS
notes: Made by solid phase synthesis (GenScript)
B2: N-terminally hexahistidine-tagged 72-amino acid C-terminal tail of human FGF23 (S180 to I251), FGF23^180-251 (peptide)
peptide: SAEDDSERDPLNVLKPRARMTPAPASCSQELPSAEDNSPMASDPLGVVRGGRVNTHAGGTGPEGCRPFAKFI
notes: Expressed in E. coli; also called FGF23 C-terminal tail peptide; C-terminal tail of FGF23; not shown: N-terminal hexahistidine tag (six His)

Tests used:
[1] = molecular target: T1, 1:1 binary complex of the ectodomains …; experiment: SPR competition; competitor FGF23^28-251 immobilized, fixed FGFR1c-Klotho complex
Procedure: Increasing concentrations of FGF23²⁸⁻²⁵¹ (0-50 nM) were mixed with a fixed concentration of 1:1 complex of the ectodomains of FGFR1c and Klotho (15 nM and 20 nM, respectively) in HBS-EP buffer, and the mixtures were passed over the FGF23 chip. In the other—reverse—assay, FGF23¹⁸⁰⁻²⁵¹ was immobilized on a chip (˜48.4 fmole/mm² of flow channel). Increasing concentrations of FGF23²⁸⁻²⁵¹ (0-50 nM) were mixed with a fixed concentration of 1:1 complex of the ectodomains of FGFR1c and Klotho (20 nM) in HBS-EP buffer, and the mixtures were passed over the chip. As a control, competition of FGF23 C-terminal tail peptide in solution with immobilized FGF23 C-terminal tail peptide for binding to the binary FGFR1c-Klotho complex was studied. Increasing concentrations of FGF23¹⁸⁰⁻²⁵¹ (0-400 nM) were mixed with a fixed concentration of 1:1 complex of the ectodomains of FGFR1c and Klotho (20 nM) in HBS-EP buffer, and the mixtures were passed over the FGF23¹⁸⁰⁻²⁵¹ chip.
To fully nail down that the C-terminal tail of FGF23 mediates FGF23 binding to the binary FGFR1c-Klotho complex, a fixed concentration of FGFR1c-Klotho was mixed with increasing concentrations of FGF23¹⁸⁰⁻²⁵¹, and the mixtures were passed over the FGF23 chip. Mixtures of FGF23²⁸⁻²⁵¹ with FGFR1c-Klotho were used as a control. […] Similar results were obtained using the “reverse” SPR assay format, where FGF23¹⁸⁰⁻²⁵¹ was immobilized on a chip and mixtures of a fixed concentration of FGFR1c-Klotho complex with increasing concentrations of FGF23²⁸⁻²⁵¹ were passed over the chip (FIG. 3E). Mixtures of FGF23¹⁸⁰⁻²⁵¹ with FGFR1c-Klotho were used as a control (FIG. 3F). To verify the specificity of the interaction between the FGF23 C-terminal tail and the FGFR1c-Klotho complex, the C-terminal tail peptide of FGF21 and FGFR1c-Klotho were mixed at molar ratios of 6:1 and 10:1, and the mixtures were injected over a FGF23 chip.

[2] = molecular target: FGFR-Klotho complex of opossum kidney OKP cells (opossum); experiment: cell-based or functional assay

Binder	molar excess over FGFR1c-Klotho complex at half-maximum inhibition [1] [fold molar excess]	antagonism of the inhibition of sodium-coupled phosphate uptake by FGF23^28-251 in OKP cells, IC50 [2] [nM]
B1	5.7	–
B2	3.3	~21

From patent US20130184211A1 (NEW YORK UNIVERSITY, published 2013)
